Reference: paper PMC5646246, “Unraveling the Self-Assembly of the Pseudomonas aeruginosa XcpQ Secretin Periplasmic Domain Provides New Molecular Insights into Type II Secretion System Secreton Architecture and Dynamics” (mBio, 2017)
Where a chain is given by its changes, count along the chain named. Names and notes keep the numbering of the source. Values joined by “and” are separate entries in the source; they are usually repeats but may differ in a detail not shown here. Equal values may be shown once.

Assays:
[1] = target: the molecule itself; assay: cross-linking; in vivo disulfide cross-linking of V5-tagged full-length XcpQ variants in P. aeruginosa PAO1 ΔxcpQ; membranes with N-ethylmaleimide, SDS-PAGE denaturing, nonreducing or reducing, anti-V5 blot
[2] = target: T1, XcpQ_(N012) (N0, N1 and N2 subdomains of the periplasmic N-terminal domain of the P. aeruginosa XcpQ secretin) (Pseudomonas aeruginosa, UniProt P35818); assay: SEC; vHH04 mixed with the preformed XcpQ_(N012) multimer (dodecamer); shift of the H peak; conditions: both partners purified
T1 construct: XcpQ secretin of the Xcp type II secretion system, Pseudomonas aeruginosa; subdomains N0, N1 and N2; 26 kDa; the whole N domain covers residues 51 to 365; Found in solution as dimers (L) and dodecamers (H); also called matured XcpQ_(N012); untagged XcpQ_(N012)

[3] = target: T2, XcpQ_(N012) with biotin tag (fixed on streptavidin sensors) (Pseudomonas aeruginosa) (UniProt P35818); assay: BLI; XcpQ_(N012) fixed on streptavidin sensors by a biotin tag; soluble vHH04 from 0.156 to 10 µM
T2 sequence (chain, biotin (biotin tag, site not stated)): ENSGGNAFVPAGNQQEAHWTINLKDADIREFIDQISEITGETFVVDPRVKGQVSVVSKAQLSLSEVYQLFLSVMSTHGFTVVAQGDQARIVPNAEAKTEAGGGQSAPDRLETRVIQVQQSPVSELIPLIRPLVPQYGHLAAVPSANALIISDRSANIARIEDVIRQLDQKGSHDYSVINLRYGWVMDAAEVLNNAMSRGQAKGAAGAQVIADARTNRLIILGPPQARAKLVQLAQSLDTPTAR

[4] = target: the molecule itself; assay: negative-staining single-particle electron microscopy; SEC fractions diluted to 0.02-0.05 mg/ml, uranyl acetate stain, EMAN2 2D classes; 3D reconstruction with C6 symmetry imposed for the Trx fusions
[5] = target: the molecule itself; assay: SEC + cross-linking; XcpQ_(N012)-T54C-Q86C without H2O2 treatment, HiLoad Superdex 200 16/600; oligomeric fractions on SDS-PAGE under reducing and nonreducing conditions
[6] = target: the molecule itself; assay: SEC; HiLoad 16/600 Superdex 200 column calibrated with standard proteins; purified protein alone
[7] = target: T3, chitin binding protein D (CbpD), Xcp T2SS effector (Pseudomonas aeruginosa, UniProt Q9I589 26-389); assay: BLI; sensor coupled to CbpD or to XcpPp; XcpQ_(N012) alone or the XcpQ_(N012)-vHH04 complex in solution; conditions: both partners purified
T3 construct: Coupled to the BLi sensor; source: purified
T3 sequence: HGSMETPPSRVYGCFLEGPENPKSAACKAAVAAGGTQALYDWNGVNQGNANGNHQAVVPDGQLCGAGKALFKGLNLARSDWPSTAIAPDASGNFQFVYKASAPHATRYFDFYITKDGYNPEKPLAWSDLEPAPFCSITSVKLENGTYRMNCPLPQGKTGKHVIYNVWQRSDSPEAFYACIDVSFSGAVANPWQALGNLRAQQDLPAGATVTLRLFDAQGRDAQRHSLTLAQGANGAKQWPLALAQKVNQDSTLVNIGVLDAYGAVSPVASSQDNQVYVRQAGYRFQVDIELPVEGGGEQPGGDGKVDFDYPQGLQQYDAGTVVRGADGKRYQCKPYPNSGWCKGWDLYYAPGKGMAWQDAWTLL

B1: full-length XcpQ-S210C (natural protein)
chain: ENSGGNAFVPAGNQQEAHWTINLKDADIREFIDQISEITGETFVVDPRVKGQVSVVSKAQLSLSEVYQLFLSVMSTHGFTVVAQGDQARIVPNAEAKTEAGGGQSAPDRLETRVIQVQQSPVSELIPLIRPLVPQYGHLAAVPSANALIISDRSANIARIEDVIRQLDQKGSHDYCVINLRYGWVMDAAEVLNNAMSRGQAKGAAGAQVIADARTNRLIILGPPQARAKLVQLAQSLDTPTARSANTRVIRLRHNDAKTLAETLGQISEGMKNNGGQGGEQTGGGRPSNILIRADESTNALVLLADPDTVNALEDIVRQLDVPRAQVLVEAAIVEISGDIQDAVGVQWAINKGGMGGTKTNFANTGLSIGTLLQSLESNKAPESIPDGAIVGIGSSSFGALVTALSANTKSNLLSTPSLLTLDNQKAEILVGQNVPFQTGSYTTNSEGSSNPFTTVERKDIGVSLKVTPHINDGAALRLEIEQEISALLPNAQQRNNTDLITSKRSIKSTILAENGQVIVIGGLIQDDVSQAESKVPLLGDIPLLGRLFRSTKDTHTKRNLMVFLRPTVVRDSAGLAALSGKKYSDIRVIDGTRGPEGRPSILPTNANQLFDGQAVDLRELMTE
modifications: disulfide bridge between S210C of two chains
notes: XcpQ secretin, Pseudomonas aeruginosa, full length; Made with its own signal peptide and exported to the envelope; source: P. aeruginosa PAO1 ΔxcpQ, pJN vector, arabinose-induced, in membrane samples; not shown: V5, C-terminal, kept
stoichiometry N [1]: 2

B2: full-length XcpQ-T54C-Q86C (natural protein)
chain: B1 chain with T20C, Q52C, C176S
modifications: disulfide bridge between T54C and Q86C of two chains
notes: as for B1
stoichiometry N [1]: 2

B3: vHH04 nanobody directed against XcpQN (VHH)
VHH: QVQLVESGGGSVQAGGSLRLSCAASGNTDSSYYMGWFRQGPGKEREGVASIYIRAGIPYYTDSVKGRFTISQDNAKNTIYLQMNSLKPEDTAMYFCAGSVRTTIQPFKGNYYNYWGRGTQVTVSS
notes: camel nanobody; About 16 kDa; For the in vivo interference the histidine-tagged vHH04 was produced in the periplasm of P. aeruginosa PAO1 (IPTG-inducible); also called histidine-tagged vHH04; His-tagged vHH04; source: E. coli WK6, purified
stoichiometry N [2]: 6 vHH04 per XcpQ_(N012) dodecamer | Kd [3]: 5.6 µM

B4: Trx-XcpQ_(N012)-S210C (domain or fragment)
chain: T2 sequence (chain, biotin (biotin tag, site not stated)) with S176C
notes: XcpQ secretin, Pseudomonas aeruginosa; subdomains N0, N1 and N2; Uncleaved thioredoxin fusion of m3; source: E. coli BL21(DE3)pLysS, purified; copies: 12
binding result [4]: binds

B5: XcpQ_(N012)-T54C-Q86C (domain or fragment)
chain: T2 sequence (chain, biotin (biotin tag, site not stated)) with T20C, Q52C
modifications: disulfide bridges between T54C and Q86C of neighbouring chains
notes: XcpQ secretin, Pseudomonas aeruginosa; subdomains N0, N1 and N2; source: E. coli BL21(DE3)pLysS, purified (same protocol as XcpQ_(N012), SEC without H2O2 treatment)
stoichiometry N [5]: 12 and 4 and 6

B6: Trx-XcpQ_(N012) fusion protein (domain or fragment)
chain: T2 sequence (chain, biotin (biotin tag, site not stated))
notes: XcpQ secretin, Pseudomonas aeruginosa; subdomains N0, N1 and N2; Uncleaved thioredoxin fusion of m1; also called Trx-Q_(N012); source: E. coli BL21(DE3)pLysS, purified (SEC); copies: 12
stoichiometry N [6]: 12

B7: XcpQ_(N012) (N0, N1 and N2 subdomains of the periplasmic N-terminal domain of the P. aeruginosa XcpQ secretin) (domain or fragment, Pseudomonas aeruginosa)
chain: T2 sequence (chain, biotin (biotin tag, site not stated))
notes: XcpQ secretin of the Xcp type II secretion system, Pseudomonas aeruginosa; subdomains N0, N1 and N2; 26 kDa; the whole N domain covers residues 51 to 365; Found in solution as dimers (L) and dodecamers (H); also called matured XcpQ_(N012); untagged XcpQ_(N012)
binding result [7]: binds
